From patent US6461841B2, “L-amino acid oxidase from Rhodococcus species” (Degussa AG, priority 2000, dated 2002)
“And” between values parts separate entries of the source, which are not always exact repeats. Equal entries are not always repeated.

Experiments:
Assay in all cases: purified protein, by the assay type
Conditions in all cases: other: 0.2 M TEA-HCl buffer, pH 7.6, 30° C.
[1] = substrate: CC(C)[C@H](N)C(=O)O
[2] = substrate: NC(=O)CC[C@H](N)C(=O)O
[3] = substrate: CC[C@H](C)[C@H](N)C(=O)O
[4] = substrate: NCCC[C@H](N)C(=O)O
[5] = substrate: CC(C)C[C@H](N)C(=O)O
[6] = substrate: NC(=O)C[C@H](N)C(=O)O; type: biochemical
Experimental: (§1) To determine the kinetic constants, the reaction speed of oxidation was studied at different concentrations of amino acid and for different L-amino acids, under the following conditions (tests in microtiter plates):
(§2) 0.2 M TEA-HCl buffer, pH 7.6; 0.2 mg/mL o-dianisidine; 25 U/mL POX; L-amino acid oxidase in limiting amounts; varying concentrations of the different L-amino acids. Activity measurement was conducted by photometry at 450 nm and 30° C.
(§3) The kinetic constants Vmax.

[7] = substrate: N[C@@H](CO)C(=O)O; type: biochemical
Experimental: as §1, §2, §3

[8] = substrate: N[C@@H](Cc1ccccc1)C(=O)O; type: biochemical
Experimental: as §1, §2, §3

[9] = substrate: N=C(N)NCCC[C@H](N)C(=O)O; type: biochemical
Experimental: as §1, §2, §3

[10] = substrate: C[C@H](N)C(=O)O; type: biochemical
Experimental: as §1, §2, §3

[11] = substrate: NC(=O)NCCC[C@H](N)C(=O)O; type: biochemical
Experimental: as §1, §2, §3

[12] = substrate: NCCCC[C@H](N)C(=O)O; type: biochemical
Experimental: as §1, §2, §3

[13] = substrate: CSCC[C@H](N)C(=O)O; type: biochemical
Experimental: as §1, §2, §3

B1: L-amino acid oxidase from Rhodococcus opacus (Rhodococcus opacus) (protein)
chain: AGDLIGKVKGSHSVVVLGGGPAGLCSAFELQKAGYKVTVLEARTRPGGRVWTARGGSEETDLSGETQKCTFSEGHFYNVGATRIPQSHITLDYCRELGVEIQGFGNQNANTFVNYQSDTSLSGQSVTYRAAKADTFGYMSELLKKATDQGALDQVLSREDKDALSEFLSDFGDLSDDGRYLGSSRRGYDSEPGAGLNFGTEKKPFAMQEVIRSGIGRNFSFDFGYDQAMMMFTPVGGMDRIYYAFQDRIGTDNIVFGAEVTSMKNVSEGVTVEYTAGGSKKSITADYAICTIPPHLVGRLQNNLPGDVLTALKAAKPSSSGKLGIEYSRRWWETEDRIYGGASNTDKDISQIMFPYDHYNSDRGVVVAYYSSGKRQEAFESLTHRQRLAKAIAEGSEIHGEKYTRDISSSFSGSWRRTKYSESAWANWAGSGGSHGGAATPEYEKLLEPVDKIYFAGDHLSNAIAWQHGALTSARDVVTHIHERVAQEA
notes: made in house; host or cells: Rhodococcus opacus DSM 43250, the natural producer; purified from crude cell extract, not recombinant
- Km [1]: 3730 µM
- Vmax [1]: 1.93 µmol/min/mg
- Vmax [2]: 5.06 µmol/min/mg and 2.32 µmol/min/mg
- Km [3]: 5110 µM
- Vmax [3]: 2.84 µmol/min/mg
- Km [4]: 34 µM
- Vmax [4]: 7.48 µmol/min/mg
- Km [5]: 28 µM
- Vmax [5]: 6.45 µmol/min/mg
- Km [6]: 28 µM
- Vmax [6]: 5.37 µmol/min/mg
- Km [7]: 1360 µM
- Vmax [7]: 4.36 µmol/min/mg
- Km [8]: 19 µM
- Vmax [8]: 5.64 µmol/min/mg
- Km [9]: 70 µM
- Vmax [9]: 8.12 µmol/min/mg
- Km [10]: 274 µM
- Vmax [10]: 4.27 µmol/min/mg
- Km [11]: 26 µM
- Vmax [11]: 5.47 µmol/min/mg
- Km [12]: 15 µM
- Vmax [12]: 3.56 µmol/min/mg
- Km [13]: 39 µM
